From patent publication USRE48805E1, “Method for cancer targeting treatment and detection of arginine using albumin-binding arginine deiminase fusion protein” (Vision Global Holdings Ltd., priority 2013, dated 2021)

How the values were obtained:
[1] = system: N=C(N)NCCC[C@H](N)C(=O)O; assay: Enzyme kinetics (Km), citrulline detection by DAM-TSC assay; format: biochemical, Mycoplasma arginini; conditions: other: substrate arginine (62.5-2000 μM), pH 7.4
Method: (§1) To determine the enzyme activity for wild-type ADI and AAD fusion protein in the present invention, the diacetyl monoxime (DAM)-thiosemicarbazide (TSC) assay for citrulline detection is used. The reaction is shown below. L-Arginine argininedeiminase(ADI)orAADfusion>L-Citrulline+Ammonia
(§2) This assay is run by adding sample to a color reagent, which is made by mixing acidic ferric chloride solution with DAM-TSC solution. […] The reaction mixture is heated at 100° C. for […] to develop the color and read at 540 nm (light path=1 cm). A standard curve is constructed using various concentrations of citrulline. One unit of the ADI native enzyme is the amount of enzyme activity that converts 1 μmol of arginine to 1 μmol of citrulline per minute at 37° C. under the assay conditions. The specific activities of wild-type ADI, pegylated ADI (Ensor et al., Cancer Res. 62:5443-5450, 2002) and AAD fusion protein in the present invention are about 20, 15 and 19 U/mg (at pH 7.4, physiological pH), respectively. The specific activities for wild-type ADI and AAD fusion protein at different pH values (in a range from pH 5.5 to 9.5) are also determined, and the optimum pH is at 6.5.
(§3) The Michaelis constant Km is the substrate concentration at which the reaction rate is at half-maximum, and is an inverse measure of the substrate's affinity for the enzyme. […]

[2] = system: N=C(N)NCCC[C@H](N)C(=O)O; assay: as above; format: biochemical, Bacillus cereus; conditions: other: substrate arginine (62.5-2000 μM), pH 7.4
Method: as §1, §2, §3

Substance: AAD fusion protein His-ABD-PolyN-ADI (FIG. 3E), SEQ ID NO: 40, ADI originated from Mycoplasma arginini (Mycoplasmopsis arginini)
- Km [1]: 4.1 µM

Substance: AAD fusion protein His-ABD-PolyN-bcADI (FIG. 3F), SEQ ID NO: 41, ADI originated from Bacillus cereus (Bacillus cereus AH820)
- Km [2]: 132 µM
